{
  "source": "paper PMC7145526",
  "about": "“The mRNA repressor TRIM71 cooperates with Nonsense-Mediated Decay factors to destabilize the mRNA of CDKN1A/p21”",
  "binders": {"B1": {"name": "TRE M#3 (SL M#3), loop position III G to C (structured_RNA)", "RNA": "GUCUUGUCAAGGC"}},
  "target": "T1, Flag-TRIM71-NHL (Homo sapiens, UniProt Q2Q1W2 585-868)",
  "T1 sequence": "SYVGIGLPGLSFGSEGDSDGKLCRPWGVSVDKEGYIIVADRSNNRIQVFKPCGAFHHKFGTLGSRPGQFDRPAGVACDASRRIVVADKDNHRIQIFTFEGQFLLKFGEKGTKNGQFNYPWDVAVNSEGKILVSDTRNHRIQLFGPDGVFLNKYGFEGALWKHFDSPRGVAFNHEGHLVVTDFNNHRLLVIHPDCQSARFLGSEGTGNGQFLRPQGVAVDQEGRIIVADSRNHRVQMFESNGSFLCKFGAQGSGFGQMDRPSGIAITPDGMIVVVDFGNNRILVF",
  "test": "fluorescence polarization; 1x TBST, 30 min, RT; 100 nM 5'-Cy3 RNA, increasing protein concentrations; pH and salt not given",
  "settings": "protein: recombinant; tags: Flag; label: 5'-Cy3; hairpin (disruptive mutation)",
  "data": [
    {"binder": "B1", "values": [
      {"measurement": "binding result", "value": "no binding"}
    ]}
  ]
}
